Experimental data taken from publication PMC13013135, “[^99mTc]Tc-PSMA-HSG for PSMA-targeted Hybrid Surgical Guidance: a new addition to the PSMA-I&S/I&T family” (European Journal of Nuclear Medicine and Molecular Imaging, 2025).

Experiment: in vivo
Conditions: mouse, in vivo
Experimental: The biodistribution of [^99mTc]Tc-PSMA-HSG and of the reference compound [^99mTc]Tc-PSMA-I&S was investigated in LNCaP xenograft bearing NSG mice (see supplemental information).
Mice were injected intravenously with the respective ^99mTc-labeled tracer (24–34 MBq (fixed peptide dose of 1 nmol/mouse) or 3.7–7.6 MBq (fixed peptide doses of 0.1 nmol/mouse), respectively) and were sacrificed at 2 h (1 nmol-cohort) or 6 h p.i. (0.1 nmol-cohort), respectively. The organs of interest were dissected, and the activity concentration in weighed tissue samples was quantified using an AMG Automatic Gamma Counter (Hidex, Turku, Finland). Biodistribution data are given in %iD/g and represent means ± SD (groups of n = 5 animals). Statistical analysis (Multiple unpaired t-test) of biodistribution data and tumor/organ ratios was performed using GraphPad Prism (Boston, USA).
To induce LNCaP tumor growth, a suspension of LNCaP cells (approx. 5 x 10^6 cells/mouse) in 200 μl of a 1:1 mixture of serum-free DMEM and Matrigel (BD Biosciences) was injected subcutaneously into the right shoulder of male NOD scid gamma (NSG) mice (6-8 weeks, in-house breeding, Dpt. of Oncology, University of Lausanne). After approximately 9 weeks, tumor size reached 4-8 mm in diameter and the mice were used for the in vivo studies.

C[N+]1=C(/C=C/C=C/C=C2/N(CCCCCC(=O)NCCCC[C@@H](NC(=O)[C@@H](CO)NC(=O)[C@@H](CO)NC(=O)[C@@H](CO)NC(=O)CS)C(=O)N[C@H](Cc3ccc(O)cc3)C(=O)N[C@H](Cc3ccc4ccccc4c3)C(=O)N[C@H](CCCCNC(=O)CCCCCCC(=O)NCCCC[C@H](NC(=O)N[C@@H](CCC(=O)O)C(=O)O)C(=O)O)C(=O)O)c3ccc(S(=O)(=O)[O-])cc3C2(C)C)C(C)(C)c2cc(S(=O)(=O)O)ccc21 [[^99mTc]Tc-PSMA-HSG, metal not drawn]
tissue uptake at 6 h (male, NOD scid gamma (NSG), iv, 0.1 nmol/mouse, total radioactivity, biodistribution, liver): 2.5 ± 0.4 %ID/g
tissue uptake at 6 h (male, NOD scid gamma (NSG), iv, 0.1 nmol/mouse, total radioactivity, biodistribution, lung): 2.5 ± 0.5 %ID/g
tissue uptake at 6 h (male, NOD scid gamma (NSG), iv, 0.1 nmol/mouse, total radioactivity, biodistribution, pancreas): 0.8 ± 0.3 %ID/g
tissue uptake at 6 h (male, NOD scid gamma (NSG), iv, 0.1 nmol/mouse, total radioactivity, biodistribution, spleen): 9.7 ± 3.8 %ID/g
tissue uptake at 6 h (male, NOD scid gamma (NSG), iv, 0.1 nmol/mouse, total radioactivity, biodistribution, stomach): 1.1 ± 0.2 %ID/g
tissue uptake at 2 h (male, NOD scid gamma (NSG), iv, 1 nmol/mouse, total radioactivity, biodistribution, liver): 3.3 ± 0.3 %ID/g
tissue uptake at 2 h (male, NOD scid gamma (NSG), iv, 1 nmol/mouse, total radioactivity, biodistribution, lung): 2.8 ± 0.3 %ID/g
tissue uptake at 2 h (male, NOD scid gamma (NSG), iv, 1 nmol/mouse, total radioactivity, biodistribution, pancreas): 0.8 ± 0.1 %ID/g
tissue uptake at 2 h (male, NOD scid gamma (NSG), iv, 1 nmol/mouse, total radioactivity, biodistribution, spleen): 5.2 ± 1.9 %ID/g
tissue uptake at 2 h (male, NOD scid gamma (NSG), iv, 1 nmol/mouse, total radioactivity, biodistribution, stomach): 1.6 ± 0.1 %ID/g
tissue to tissue ratio at 6 h (male, NSG, iv, 0.1 nmol/mouse, total radioactivity): 0.12 ± 0.02
tissue uptake at 6 h (male, NSG, iv, 0.1 nmol/mouse, total radioactivity, biodistribution, LNCaP tumor): 19.8 ± 6.6 %ID/g
tissue uptake at 6 h (male, NSG, iv, 0.1 nmol/mouse, total radioactivity, biodistribution, blood): 1.3 ± 0.3 %ID/g
tissue uptake at 6 h (male, NSG, iv, 0.1 nmol/mouse, total radioactivity, biodistribution, heart): 0.7 ± 0.2 %ID/g
tissue uptake at 6 h (male, NSG, iv, 0.1 nmol/mouse, total radioactivity, biodistribution, intestines): 1.3 ± 0.2 %ID/g
tissue uptake at 6 h (male, NSG, iv, 0.1 nmol/mouse, total radioactivity, biodistribution, kidneys): 148 ± 17 %ID/g
tissue uptake at 6 h (male, NSG, iv, 0.1 nmol/mouse, total radioactivity, biodistribution, muscle): 0.4 ± 0.06 %ID/g
tissue uptake at 6 h (male, NSG, iv, 0.1 nmol/mouse, total radioactivity, biodistribution, salivary glands): 4 ± 1.2 %ID/g
tissue to tissue ratio at 2 h (male, NSG, iv, 1 nmol/mouse, total radioactivity): 0.2 ± 0.03
tissue uptake at 2 h (male, NSG, iv, 1 nmol/mouse, total radioactivity, biodistribution, LNCaP tumor): 12.1 ± 0.9 %ID/g
tissue uptake at 2 h (male, NSG, iv, 1 nmol/mouse, total radioactivity, biodistribution, blood): 2.4 ± 0.3 %ID/g
tissue uptake at 2 h (male, NSG, iv, 1 nmol/mouse, total radioactivity, biodistribution, heart): 1.3 ± 0.2 %ID/g
tissue uptake at 2 h (male, NSG, iv, 1 nmol/mouse, total radioactivity, biodistribution, intestines): 1 ± 0.1 %ID/g
tissue uptake at 2 h (male, NSG, iv, 1 nmol/mouse, total radioactivity, biodistribution, kidneys): 61.7 ± 7.2 %ID/g
tissue uptake at 2 h (male, NSG, iv, 1 nmol/mouse, total radioactivity, biodistribution, muscle): 0.5 ± 0.04 %ID/g
tissue uptake at 2 h (male, NSG, iv, 1 nmol/mouse, total radioactivity, biodistribution, salivary glands): 4.2 ± 0.5 %ID/g
tissue uptake at 6 h (Tumor uptake in mice): 11.8 ± 1.5 %ID/g
